From article doi:10.1101/2020.10.28.357137

Target: SARS-CoV-2 Spike S2 protein fused to the pilot peptide CilPP, on S-EVs (SARS-CoV-2)
Experiment: non-reducing SDS-PAGE and Western blot

Substance: SARS-CoV-2 Spike S2 protein fused to the pilot peptide CilPP, on S-EVs (domain or fragment)
- stoichiometry N: 3
